This is an account of results in the supplement of paper PMC11246515.

This data set can be described thus: total protein half-life in vivo (active degradation + dilution); higher = more stable protein.
[1] abbreviates: E. coli NCM3722 delta-clpP, growth: N-lim chemostat, doubling time 6 h.
Setting [2] is: E. coli NCM3722 delta-hslV, growth: N-lim chemostat, doubling time 6 h.
The mark [3] stands for this setting: E. coli NCM3722 delta-lon, growth: N-lim chemostat, doubling time 6 h.
Where [4] appears, read: E. coli NCM3722 delta-smpB, growth: N-lim chemostat, doubling time 6 h.
Setting [5] is: wild type E. coli NCM3722, growth: C-lim chemostat, doubling time 3 h.
The mark [6] stands for this setting: wild type E. coli NCM3722, growth: C-lim chemostat, doubling time 6 h.
[7] abbreviates: wild type E. coli NCM3722, growth: C-lim chemostat, doubling time 12 h.
The mark [8] stands for this setting: wild type E. coli NCM3722, growth: N-lim chemostat, doubling time 6 h.
The mark [9] stands for this setting: wild type E. coli NCM3722, growth: N-lim chemostat, doubling time 12 h.
The mark [10] stands for this setting: wild type E. coli NCM3722, growth: P-lim chemostat, doubling time 6 h.
Setting [11] is: wild type E. coli NCM3722, growth: P-lim chemostat, doubling time 12 h.
Setting [12] is: E. coli NCM3722 delta-clpP delta-lon delta-hslV, growth: N-lim chemostat, doubling time 6 h.

± gives the standard deviation of the averaged measurements.

Consider “MLGKYKAVLALLLLIILVPLTLLMTLGLWVPTLAGIWLPLGTRIALDESPRITRKGLIIPDLRYLVGDCQLAHITNASLSHPSRWLLNVGTVELDSACLAKLPQTEQSPAAPKTLAQWQAMLPNTWINIDKLIFSPWQEWQGKLSLALTSDIQQLRYQGEKVKFQGQLKGQQLTVSELDVVAFENQPPVKLVGEFAMPLVPDGLPVSGHATATLNLPQEPSLVDAELDWQENSGQLIVLARDNGDPLLDLPWQITRQQLTVSDGRWSWPYAGFPLSGRLGVKVDNWQAGLENALVSGRLSVLTQGQAGKGNAVLNFGPGKLSMDNSQLPLQLTGEAKQADLILYARLPAQLSGSLSDPTLTFEPGALLRSKGRVIDSLDIDEIRWPLAGVKVTQRGVDGRLQAILQAHENELGDFVLHMDGLANDFLPDAGRWQWRYWGKGSFTPMNATWDVAGKGEWHDSTITLTDLSTGFDQLQYGTMTVEKPRLILDKPIVWVRDAQHPSFSGALSLDAGQTLFTGGSVLPPSTLKFSVDGRDPTYFLFKGDLHAGEIGPVRVNGRWDGIRLRGNAWWPKQSLTVFQPLVPPDWKMNLRDGELYAQVAFSAAPEQGFRAGGHGVLKGGSAWMPDNQVNGVDFVLPFRFADGAWHLGTRGPVTLRIAEVINLVTAKNITADLQGRYPWTEEEPLLLTDVSVDVLGGNVLMKQLRMPQHDPALLRLNNLSSSELVSAVNPKQFAMSGAFSGALPLWLNNEKWIVKDGWLANSGPMTLRLDKDTADAVVKDNMTAGSAINWLRYMEISRSSTKINLDNLGLLTMQANITGTSRVDGKSGTVNLNYHHEENIFTLWRSLRFGDNLQAWLEQNARLPGNDCPQGKECEEKQ”, for which the “total protein half-life in vivo” value worked out at 5.985 ± 0.043 h under setting [1]; 6.03 ± 0.13 h under setting [2]; 6.22 ± 0.2 h under setting [3]; 5.57 ± 0.078 h under setting [4]; 3.236 ± 0.032 h under setting [5]; 6.2 ± 0.12 h under setting [6]. Moreover, the “total protein half-life in vivo” value by setting is: under setting [7], 10.8 ± 0.14 h; under setting [8], 6 ± 0.47 h; under setting [9], 12.3 ± 0.45 h; under setting [10], 6.06 ± 0.32 h; under setting [11], 12.17 ± 0.039 h.

As for “MSELLSFALFLASVLIYAWKAGRNTWWFAATLTVLGLFVVLNITLFASDYFTGDGINDAVLYTLTNSLTGAGVSKYILPGIGIVLGLTAVFGALGWILRRRRHHPHHFGYSLLALLLALGSVDASPAFRQITELVKSQSRDGDPDFAAYYKEPSKTIPDPKLNLVYIYGESLERTYFDNEAFPDLTPELGALKNEGLDFSHTQQLPGTDYTIAGMVASQCGIPLFAPFEGNASASVSSFFPQNICLGDILKNSGYQNYFVQGANLRFAGKDVFLKSHGFDHLYGSEELKSVVADPHYRNDWGFYDDTVLDEAWKKFEELSRSGQRFSLFTLTVDTHHPDGFISRTCNRKKYDFDGKPNQSFSAVSCSQENIATFINKIKASPWFKDTVIVVSSDHLAMNNTAWKYLNKQDRNNLFFVIRGDKPQQETLAVKRNTMDNGATVLDILGGDNYLGLGRSSLSGQSMSEIFLNIKEKTLAWKPDIIRLWKFPKEMKEFTIDQQKNMIAFSGSHFRLPLLLRVSDKRVEPLPESEYSAPLRFQLADFAPRDNFVWVDRCYKMAQLWAPELALSTDWCVSQGQLGGQQIVQHVDKTTWQGKTAFKDTVIDMARYKGNVDTLKIVDNDIRYKADSFIFNVAGAPEEVKQFSGISRPESWGRWSNAQLGDEVKIEYKHPLPKKFDLVITAKAYGNNASRPIPVRVGNEEQTLVLGNEVTTTTLHFDNPTDADTLVIVPPEPVSTNEGNILGHSPRKLGIGMVEIKVVEREG”, the “total protein half-life in vivo” value reads like this: under setting [12], 4.02 ± 0.17 h; under setting [1], 2.98 ± 0.2 h; under setting [2], 3.42 ± 0.56 h; under setting [3], 4.63 ± 0.46 h; under setting [4], 3.47 ± 0.035 h; under setting [5], 2.17 ± 0.05 h. The “total protein half-life in vivo” value was 2.99 ± 0.12 h under setting [6], 3.93 ± 0.84 h under setting [7], 3.35 ± 0.42 h under setting [8] and 4.45 ± 0.4 h under setting [9].

In the case of “MLDAQTIATVKATIPLLVETGPKLTAHFYDRMFTHNPELKEIFNMSNQRNGDQREALFNAIAAYASNIENLPALLPAVEKIAQKHTSFQIKPEQYNIVGEHLLATLDEMFSPGQEVLDAWGKAYGVLANVFINREAEIYNENASKAGGWEGTRDFRIVAKTPRSALITSFELEPVDGGAVAEYRPGQYLGVWLKPEGFPHQEIRQYSLTRKPDGKGYRIAVKREEGGQVSNWLHNHANVGDVVKLVAPAGDFFMAVADDTPVTLISAGVGQTPMLAMLDTLAKAGHTAQVNWFHAAENGDVHAFADEVKELGQSLPRFTAHTWYRQPSEADRAKGQFDSEGLMDLSKLEGAFSDPTMQFYLCGPVGFMQFTAKQLVDLGVKQENIHYECFGPHKVL”, the “total protein half-life in vivo” value under setting [12] was 2.41 ± 0.082 h; the “total protein half-life in vivo” value under setting [1] amounted to 1.52 ± 0.25 h; the “total protein half-life in vivo” value under setting [2] was determined as 1.56 ± 0.032 h; the “total protein half-life in vivo” value under setting [3] amounted to 1.85 ± 0.057 h; the “total protein half-life in vivo” value under setting [4] worked out at 1.75 ± 0.062 h; the “total protein half-life in vivo” value under setting [5] is 2.76 ± 0.13 h. The “total protein half-life in vivo” value amounted to 3.62 ± 0.29 h under setting [6]; 5.61 ± 0.94 h under setting [7]; 1.79 ± 0.19 h under setting [8]; 2.36 ± 0.053 h under setting [9]; 4.51 ± 0.079 h under setting [10]; 7.88 ± 1.2 h under setting [11].

On to “MNSLYTAEGVMDKHSLWQRYVPLVRHEALRLQVRLPASVELDDLLQAGGIGLLNAVERYDALQGTAFTTYAVQRIRGAMLDELRSRDWVPRSVRRNAREVAQAIGQLEQELGRNATETEVAERLGIDIADYRQMLLDTNNSQLFSYDEWREEHGDSIELVTDDHQRENPLQQLLDSNLRQRVMEAIETLPEREKLVLTLYYQEELNLKEIGAVLEVGESRVSQLHSQAIKRLRTKLGKL [P0AEM6]”, for which the “total protein half-life in vivo” value was 4.94 h under setting [12], 1.78 ± 0.19 h under setting [5], 2.5 ± 0.38 h under setting [6] and 3 ± 0.9 h under setting [7].

For the sequence “MSYTPMSDLGQQGLFDITRTLLQQPDLASLCEALSQLVKRSALADNAAIVLWQAQTQRASYYASREKDTPIKYEDETVLAHGPVRSILSRPDTLHCSYEEFCETWPQLDAGGLYPKFGHYCLMPLAAEGHIFGGCEFIRYDDRPWSEKEFNRLQTFTQIVSVVTEQIQSRVVNNVDYELLCRERDNFRILVAITNAVLSRLDMDELVSEVAKEIHYYFDIDDISIVLRSHRKNKLNIYSTHYLDKQHPAHEQSEVDEAGTLTERVFKSKEMLLINLHERDDLAPYERMLFDTWGNQIQTLCLLPLMSGDTMLGVLKLAQCEEKVFTTTNLNLLRQIAERVAIAVDNALAYQEIHRLKERLVDENLALTEQLNNVDSEFGEIIGRSEAMYSVLKQVEMVAQSDSTVLILGETGTGKELIARAIHNLSGRNNRRMVKMNCAAMPAGLLESDLFGHERGAFTGASAQRIGRFELADKSSLFLDEVGDMPLELQPKLLRVLQEQEFERLGSNKIIQTDVRLIAATNRDLKKMVADREFRSDLYYRLNVFPIHLPPLRERPEDIPLLAKAFTFKIARRLGRNIDSIPAETLRTLSNMEWPGNVRELENVIERAVLLTRGNVLQLSLPDIVLPEPETPPAATVVALEGEDEYQLIVRVLKETNGVVAGPKGAAQRLGLKRTTLLSRMKRLGIDKSALI”, the “total protein half-life in vivo” value is 6.33 ± 0.39 h under setting [12]; 4.33 ± 0.27 h under setting [1]; 3.33 ± 0.097 h under setting [2]; 5.42 ± 0.29 h under setting [3]; 3.22 ± 0.57 h under setting [4]; 2.4 ± 0.24 h under setting [5]. The “total protein half-life in vivo” value is, setting by setting: under setting [6], 5.33 ± 1.1 h; under setting [7], 7.11 ± 0.98 h; under setting [8], 3.48 ± 0.2 h; under setting [9], 8.1 ± 4.8 h; under setting [10], 2.84 h; under setting [11], 5.132 ± 0.02 h.
